Source: US12344663 (CDR LIFE, dated 2025)

What was measured:
human complement C3 [1] = biological target: T1, human complement C3 (human, UniProt P01024 23-1663); experiment: cell-based or functional assay
human C3b [2] = biological target: T2, human C3b (human, UniProt P01024 23-667; P01024 749-1663, limits assumed); experiment: SPR
T2 construct: domain: C3b; also called C3 cleavage fragments C3b

human complement C3 [3] = biological target: T1, human complement C3; experiment: SPR
human complement C3 [4] = biological target: T1, human complement C3; experiment: affinity of the purified scFv, method not given
human C3b [5] = biological target: T2, human C3b; experiment: method not given; reference Clone IV
human complement C3 [6] = biological target: T1, human complement C3; experiment: method not given; reference Clone IV
human C3b [7] = biological target: T2, human C3b; experiment: SPR (Biacore T100), target immobilized, single cycle kinetics, 1:1 Langmuir fit
Description: (§1) The kinetic parameters of the candidates are determined using a surface plasmon resonance (SPR) and Biacore T100 device. C3 and different variants thereof (Table 19) are immobilized as a ligand on a HC30M SPR sensor chip (XanTec bionanalytics, Germany) using EDC/[…] linking chemistry. Five increasing concentrations of each molecule (analyte) are consecutively injected using the single cycle kinetics (SCK) mode to determine the kinetic parameters. Regeneration between the candidates is done with 10 mM glycine*HCl, 2 M NaCl, pH 3.5. The data is fitted to a 1:1 Langmuir binding model and the kinetic parameters of on-rate (ka), off-rate (kd), and affinity […] were determined.

[8] = biological target: T3, recombinant wild-type human C3 (human, UniProt P01024 23-1663, limits assumed); experiment: as above
T3 construct: Expressed in CHO cells with an N-terminal 6×His tag; also called recombinant C3; wildtype C3
Description: as §1

human complement C3 [9] = biological target: T1, human complement C3; experiment: as above
Description: as §1

cynomolgus C3 = biological target: T4, cynomolgus C3 (cynomolgus (Macaca fascicularis)); experiment: as above
T4 construct: also called cyno C3
Description: as §1

human C3 P314L = biological target: T5, human C3 P314L (human, UniProt P01024 23-1663, limits assumed); experiment: as above
T5 construct: Expressed in CHO cells with an N-terminal 6×His tag; also called C3 SNP1 P314L; C3 SNP P314L
Description: as §1

human C3 R102G = biological target: T6, human C3 R102G (human, UniProt P01024 23-1663, limits assumed); experiment: as above
T6 construct: Expressed in CHO cells with an N-terminal 6×His tag; also called C3 SNP2 R102G; C3 SNP R102G
Description: as §1

human C3b [10] = biological target: T2, human C3b; experiment: as above; remark: listed apart in the source
Description: as §1

human complement C3 [11] = biological target: T1, human complement C3; experiment: as above; remark: listed apart in the source
Description: as §1

human complement C3 [12] = biological target: T1, human complement C3; experiment: cell-based or functional assay; remark: listed apart in the source

T2 sequence (P01024 23-667 limits assumed, chain 1 of 2): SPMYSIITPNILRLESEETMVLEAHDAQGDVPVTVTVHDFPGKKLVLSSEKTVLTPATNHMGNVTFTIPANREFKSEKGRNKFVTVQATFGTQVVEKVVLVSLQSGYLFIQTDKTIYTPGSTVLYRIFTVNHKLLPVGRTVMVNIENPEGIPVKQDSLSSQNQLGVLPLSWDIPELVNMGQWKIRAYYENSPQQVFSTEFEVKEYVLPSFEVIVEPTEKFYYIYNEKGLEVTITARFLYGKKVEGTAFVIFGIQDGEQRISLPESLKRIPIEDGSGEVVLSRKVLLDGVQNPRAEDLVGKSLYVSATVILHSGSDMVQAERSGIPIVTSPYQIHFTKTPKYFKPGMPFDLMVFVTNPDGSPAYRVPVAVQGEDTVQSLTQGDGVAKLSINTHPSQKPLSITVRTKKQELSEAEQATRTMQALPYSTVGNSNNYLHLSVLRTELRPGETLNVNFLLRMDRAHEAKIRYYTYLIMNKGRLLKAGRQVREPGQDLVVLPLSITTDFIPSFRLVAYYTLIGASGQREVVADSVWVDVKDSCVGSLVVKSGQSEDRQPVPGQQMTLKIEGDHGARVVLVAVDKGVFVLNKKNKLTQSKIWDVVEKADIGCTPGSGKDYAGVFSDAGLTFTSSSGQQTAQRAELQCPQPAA
T2 sequence (P01024 749-1663 limits assumed, chain 2 of 2): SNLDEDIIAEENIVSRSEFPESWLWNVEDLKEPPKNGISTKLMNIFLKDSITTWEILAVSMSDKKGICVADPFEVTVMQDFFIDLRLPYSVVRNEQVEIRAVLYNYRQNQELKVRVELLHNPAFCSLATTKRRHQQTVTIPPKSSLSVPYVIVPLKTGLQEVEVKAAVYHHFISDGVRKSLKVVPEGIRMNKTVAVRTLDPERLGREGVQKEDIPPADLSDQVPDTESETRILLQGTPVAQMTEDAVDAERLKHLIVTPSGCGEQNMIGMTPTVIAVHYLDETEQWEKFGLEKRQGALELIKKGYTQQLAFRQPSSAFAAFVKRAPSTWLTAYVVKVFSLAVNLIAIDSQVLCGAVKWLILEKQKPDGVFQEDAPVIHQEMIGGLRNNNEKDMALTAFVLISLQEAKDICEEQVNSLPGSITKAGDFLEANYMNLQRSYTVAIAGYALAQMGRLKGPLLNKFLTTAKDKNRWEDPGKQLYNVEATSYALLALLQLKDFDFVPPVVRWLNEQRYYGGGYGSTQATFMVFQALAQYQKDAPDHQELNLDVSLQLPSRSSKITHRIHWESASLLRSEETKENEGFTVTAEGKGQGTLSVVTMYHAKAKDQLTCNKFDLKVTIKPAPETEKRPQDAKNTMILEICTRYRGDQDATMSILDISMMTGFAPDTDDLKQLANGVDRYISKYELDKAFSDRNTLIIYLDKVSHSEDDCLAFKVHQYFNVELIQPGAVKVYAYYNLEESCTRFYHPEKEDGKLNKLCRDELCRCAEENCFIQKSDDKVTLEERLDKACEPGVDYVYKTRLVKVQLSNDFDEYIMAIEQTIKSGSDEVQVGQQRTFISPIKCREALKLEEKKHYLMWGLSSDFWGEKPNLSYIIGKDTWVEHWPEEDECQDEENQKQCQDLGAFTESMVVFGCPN
T5 sequence (P01024 other isoform, or with tags, fused parts or gaps P314L P314L limits assumed): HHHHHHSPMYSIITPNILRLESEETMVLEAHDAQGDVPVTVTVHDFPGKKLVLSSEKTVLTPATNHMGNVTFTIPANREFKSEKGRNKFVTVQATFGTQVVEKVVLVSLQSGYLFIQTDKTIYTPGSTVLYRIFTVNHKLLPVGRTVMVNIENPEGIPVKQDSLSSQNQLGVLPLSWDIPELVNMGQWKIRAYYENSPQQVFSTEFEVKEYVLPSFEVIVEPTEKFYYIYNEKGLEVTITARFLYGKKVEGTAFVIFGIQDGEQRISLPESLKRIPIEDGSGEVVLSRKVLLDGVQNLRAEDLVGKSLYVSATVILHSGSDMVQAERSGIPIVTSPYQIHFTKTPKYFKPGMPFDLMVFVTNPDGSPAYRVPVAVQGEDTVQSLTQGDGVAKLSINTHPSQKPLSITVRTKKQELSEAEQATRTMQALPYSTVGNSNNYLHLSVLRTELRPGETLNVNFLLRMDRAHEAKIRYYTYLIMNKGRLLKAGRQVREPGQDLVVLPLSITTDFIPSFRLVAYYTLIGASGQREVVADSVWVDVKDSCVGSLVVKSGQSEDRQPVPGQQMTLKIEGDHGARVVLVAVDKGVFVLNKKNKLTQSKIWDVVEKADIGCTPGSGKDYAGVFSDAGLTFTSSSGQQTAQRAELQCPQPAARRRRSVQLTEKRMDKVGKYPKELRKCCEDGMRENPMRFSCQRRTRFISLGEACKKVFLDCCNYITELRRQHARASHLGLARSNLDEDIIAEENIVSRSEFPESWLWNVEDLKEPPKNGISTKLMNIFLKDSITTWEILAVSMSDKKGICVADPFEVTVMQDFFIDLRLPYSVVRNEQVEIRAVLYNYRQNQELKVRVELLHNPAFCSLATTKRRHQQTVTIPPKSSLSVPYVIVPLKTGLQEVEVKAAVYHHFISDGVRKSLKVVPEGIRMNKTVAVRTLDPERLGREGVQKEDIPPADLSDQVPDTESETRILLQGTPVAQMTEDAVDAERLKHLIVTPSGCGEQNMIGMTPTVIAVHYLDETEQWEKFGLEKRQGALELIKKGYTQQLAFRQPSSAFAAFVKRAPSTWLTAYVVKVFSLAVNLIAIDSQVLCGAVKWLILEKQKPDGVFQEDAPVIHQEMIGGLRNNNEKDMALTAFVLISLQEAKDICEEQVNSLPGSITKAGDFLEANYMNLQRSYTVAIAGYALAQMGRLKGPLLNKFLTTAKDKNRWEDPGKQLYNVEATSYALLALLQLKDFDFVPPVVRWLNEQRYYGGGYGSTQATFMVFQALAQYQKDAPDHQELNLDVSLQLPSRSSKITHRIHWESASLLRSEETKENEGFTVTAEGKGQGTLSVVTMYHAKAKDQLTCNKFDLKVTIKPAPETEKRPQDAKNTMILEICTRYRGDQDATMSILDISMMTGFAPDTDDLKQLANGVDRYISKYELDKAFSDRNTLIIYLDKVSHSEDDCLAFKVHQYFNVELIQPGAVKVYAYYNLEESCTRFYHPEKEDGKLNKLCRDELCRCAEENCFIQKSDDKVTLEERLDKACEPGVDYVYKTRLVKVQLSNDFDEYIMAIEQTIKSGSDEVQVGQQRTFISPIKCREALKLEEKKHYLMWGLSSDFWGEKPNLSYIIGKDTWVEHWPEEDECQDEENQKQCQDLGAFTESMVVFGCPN
T1 sequence (P01024 23-1663 limits assumed): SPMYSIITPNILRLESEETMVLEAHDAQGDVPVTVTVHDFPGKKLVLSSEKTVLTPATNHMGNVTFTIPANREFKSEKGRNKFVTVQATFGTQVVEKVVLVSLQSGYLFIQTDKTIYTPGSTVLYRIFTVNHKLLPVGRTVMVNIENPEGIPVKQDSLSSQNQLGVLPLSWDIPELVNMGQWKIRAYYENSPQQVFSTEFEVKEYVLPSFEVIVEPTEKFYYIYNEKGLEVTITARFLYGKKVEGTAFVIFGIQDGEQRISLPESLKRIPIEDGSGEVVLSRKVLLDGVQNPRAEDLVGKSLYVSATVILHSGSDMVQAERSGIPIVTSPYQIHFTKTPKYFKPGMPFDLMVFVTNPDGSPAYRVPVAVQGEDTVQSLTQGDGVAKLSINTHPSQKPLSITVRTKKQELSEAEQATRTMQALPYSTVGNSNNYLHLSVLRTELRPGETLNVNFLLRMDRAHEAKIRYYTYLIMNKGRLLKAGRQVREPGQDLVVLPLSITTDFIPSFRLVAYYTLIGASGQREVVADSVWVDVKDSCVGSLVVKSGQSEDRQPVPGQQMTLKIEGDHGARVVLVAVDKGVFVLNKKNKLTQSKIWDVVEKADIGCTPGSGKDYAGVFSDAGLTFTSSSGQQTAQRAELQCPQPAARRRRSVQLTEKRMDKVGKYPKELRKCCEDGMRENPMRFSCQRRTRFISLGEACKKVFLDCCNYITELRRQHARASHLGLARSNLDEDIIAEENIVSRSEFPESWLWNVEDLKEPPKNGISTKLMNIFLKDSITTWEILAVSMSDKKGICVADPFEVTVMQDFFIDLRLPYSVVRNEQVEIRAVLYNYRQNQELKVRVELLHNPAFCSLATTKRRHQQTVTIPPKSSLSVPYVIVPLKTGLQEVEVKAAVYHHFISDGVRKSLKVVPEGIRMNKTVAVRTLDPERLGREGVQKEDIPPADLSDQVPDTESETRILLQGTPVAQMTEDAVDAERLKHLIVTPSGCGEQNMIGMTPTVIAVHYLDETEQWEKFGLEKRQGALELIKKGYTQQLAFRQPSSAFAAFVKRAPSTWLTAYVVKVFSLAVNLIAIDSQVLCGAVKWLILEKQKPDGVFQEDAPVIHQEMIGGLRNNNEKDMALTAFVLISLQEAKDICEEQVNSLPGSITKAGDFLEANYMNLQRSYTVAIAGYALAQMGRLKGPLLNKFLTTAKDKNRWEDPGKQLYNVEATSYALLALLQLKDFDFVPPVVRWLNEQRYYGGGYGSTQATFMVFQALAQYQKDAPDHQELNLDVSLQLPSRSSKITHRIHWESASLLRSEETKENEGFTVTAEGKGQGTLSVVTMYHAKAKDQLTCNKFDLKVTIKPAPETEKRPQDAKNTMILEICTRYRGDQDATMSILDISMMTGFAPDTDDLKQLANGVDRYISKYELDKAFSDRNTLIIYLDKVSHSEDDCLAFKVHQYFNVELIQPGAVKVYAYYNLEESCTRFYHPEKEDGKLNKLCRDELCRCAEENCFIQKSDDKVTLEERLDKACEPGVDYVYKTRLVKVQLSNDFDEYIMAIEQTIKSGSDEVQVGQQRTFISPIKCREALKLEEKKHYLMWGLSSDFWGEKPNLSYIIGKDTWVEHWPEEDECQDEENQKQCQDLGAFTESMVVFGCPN
T3 sequence (P01024 other isoform, or with tags, fused parts or gaps limits assumed): as the sequence (P01024 other isoform, or with tags, fused parts or gaps P314L P314L limits assumed) above, with L298P counted along it
T6 sequence (P01024 other isoform, or with tags, fused parts or gaps R102G R102G limits assumed): as the sequence (P01024 other isoform, or with tags, fused parts or gaps P314L P314L limits assumed) above, with R86G, L298P counted along it

B1: Clone XIII (scFv)
scFv: MQLVLTQSPSASASLGASVKLTCTLSSAHKTYTIDWYQQQPEKCPRYLMQLKSEGSYTKGTGVPDRFSGSSSGAERYLTISSLQSEDEADYYCGTEGVGGYVFGGGTKLTVLGGGGGSGGGGSGGGGSGGGGSQVQVVESGGGSVQPGRSLRLSCAVSGFSLYNYAMNWVRQAPGKGLEWIGIINVGGGTNYASWAKGRFTISTDNSKNTVYLQMNSLRAEDTASYYCARAVGYHHARLDPWGCGTSVTVSS
IC50, complement inhibition in the alternative pathway (human complement C3 [1]): 260 nM | IC50, complement inhibition in the classical pathway (human complement C3 [1]): 60 nM | Kd (human C3b [2]): 0.11 nM | Kd (human complement C3 [3]): 0.116 nM

B2: Clone XII (scFv)
scFv: MQLVLTQSPSASASLGASVKLTCTLSSAHKTYTIDWYQQQPEKCPRYLMQLKSEGSYTKGTGVPDRFSGSSSGAERYLTISSLQSEDEADYYCGTDYGGGYVFGGGTKLTVLGGGGGSGGGGSGGGGSGGGGSQVQVVESGGGSVQPGRSLRLSCAVSGFSLYNYAMNWVRQAPGKGLEWIGIINVGGGTNYASWAKGRFTISTDNSKNTVYLQMNSLRAEDTASYYCARAVGYHHARLDPWGCGTSVTVSS
IC50, complement inhibition in the alternative pathway (human complement C3 [1]): 210 nM | IC50, complement inhibition in the classical pathway (human complement C3 [1]): 98 nM | Kd (human C3b [2]): 4.8 nM | Kd (human complement C3 [3]): 4.7 nM

B3: Clone IX (scFv)
scFv: MQLVLTQSPSASASLGASVKLTCTLSSAHKTYTIDWYQQQPEKGPRYLMQLKSEGSYTKGTGVPDRFSGSSSGAERYLTISSLQSEDSAVYYCGTDGVGGYVFGCGTKLTVLGGGGGSGGGGSGGGGSGGGGSQVQVVESGGGSVQPGRSLRLSCAVSGFSLYNYAMNWVRQAPGKCLEWIGIINVGGGTNYASWAKGRFTISTDNSKNTVYLQMNSLRAEDTASYYCARAVGYHHHALDPWGQGTSVTVSS
Kd (human complement C3 [4]): 1.3 nM

B4: Clone VIII (scFv)
scFv: MQLVLTQSPSASASLGASVKLTCTLSSAHKTYTIDWYQQQPEKGPRYLMQLKSEGSYTKGTGVPDRFSGSSSGAERYLTISSLQSEDSAVYYCGTEGVGGYVFGCGTKLTVLGGGGGSGGGGSGGGGSGGGGSQVQVVESGGGSVQPGRSLRLSCAVSGFSLYNYAMNWVRQAPGKCLEWIGIINVGGGTNYASWAKGRFTISTDNSKNTVYLQMNSLRAEDTASYYCARAVGYHHSRLDPWGQGTSVTVSS
fold increase in the binding affinity compared to Clone IV (human C3b [5]): ~10 fold | fold increase in the binding affinity compared to Clone IV (human complement C3 [6]): ~10 fold | Kd (human complement C3 [4]): 0.184 nM

B5: Clone XIV (scFv)
scFv: MQLVLTQSPSASASLGASVKLTCTLSSAHKTYTIDWYQQQPEKCPRYLMQLKSEGSYTKGTGVPDRFSGSSSGAERYLTISSLQSEDEADYYCGTEGVGGYVFGGGTKLTVLGGGGGSGGGGSGGGGSGGGGSQVQVVESGGGSVQPGRSLRLSCAVSGFSLYNYAMNWVRQAPGKGLEWIGIINVGGGTNYASWAKGRFTISTDNSKNTVYLQMNSLRAEDTASYYCARAVGYHHSRLDPWGCGTSVTVSS
notes: also called Cone XIV
IC50, complement inhibition in the alternative pathway (human complement C3 [1]): 250 nM | IC50, complement inhibition in the classical pathway (human complement C3 [1]): 50 nM | Kd (human C3b [2]): 0.116 nM | Kd (human complement C3 [3]): 0.129 nM

B6: Clone VII (scFv)
scFv: MQLVLTQSPSASASLGASVKLTCTLSSAHKTYTIDWYQQQPEKGPRYLMQLKSEGSYTKGTGVPDRFSGSSSGAERYLTISSLQSEDSAVYYCGTEGVGGYVFGCGTKLTVLGGGGGSGGGGSGGGGSGGGGSQVQVVESGGGSVQPGRSLRLSCAVSGFSLYNYAMNWVRQAPGKCLEWIGIINVGGGTNYASWAKGRFTISTDNSKNTVYLQMNSLRAEDTASYYCARAVGYHHHALDPWGQGTSVTVSS
Kd (human complement C3 [4]): 1.1 nM

B7: Clone II (scFv)
scFv: MQLVLTQSPSASASLGASVKLTCTLSSAHKTYTIDWYQQQPEKCPRYLMQLKSDGSYTKGSGIPDRFSGSSSGAERYLTISSLQSEDEADYYCGTEGVGGYVFGGGTKLTVLGGGGGSGGGGSGGGGSGGGGSQVQLVESGGGSVQPGRSLRLSCAASGFTFSNYAMNWVRQAPGKGLEWVAIINVGGGTNYADSVKGRFTISRDNSKNTLYLQMNSLRAEDTASYYCARAVGYHHARLDPWGCGTSVTVSS
notes: also called scFv of the invention
Kd (human C3b [7]): 0.05 nM | koff (human C3b [7]): 1.2e-05 s⁻¹ | kon (human C3b [7]): 250000 M⁻¹ s⁻¹ | Kd [8]: 0.035 nM | koff [8]: 1e-05 s⁻¹ | kon [8]: 300000 M⁻¹ s⁻¹ | Kd (human complement C3 [9]): 0.022 nM | koff (human complement C3 [9]): 5.5e-06 s⁻¹ | kon (human complement C3 [9]): 250000 M⁻¹ s⁻¹ | Kd (cynomolgus C3): 0.07 nM | koff (cynomolgus C3): 1.5e-05 s⁻¹ | kon (cynomolgus C3): 210000 M⁻¹ s⁻¹ | Kd (human C3 P314L): < 0.04 nM | koff (human C3 P314L): < 1.1e-05 s⁻¹ | kon (human C3 P314L): 290000 M⁻¹ s⁻¹ | Kd (human C3 R102G): 0.021 nM | koff (human C3 R102G): 7e-06 s⁻¹ | kon (human C3 R102G): 330000 M⁻¹ s⁻¹ | Kd (human C3b [10]): 0.05 nM | Kd (human complement C3 [11]): 0.022 nM | IC50 (nM), Alternative Pathway, Hemolysis (rabbit erythrocytes, human serum) (human complement C3 [12]): 668 nM | IC50 (nM), Alternative Pathway, MAC deposition (WEISLAB, human serum) (human complement C3 [12]): 360 nM | IC50 (nM), Classical Pathway, Hemolysis (antibody-sensitized sheep erythrocytes, human serum) (human complement C3 [12]): 69 nM | IC50 (nM), Classical Pathway, MAC deposition (WEISLAB, human serum) (human complement C3 [12]): 77 nM | IC50 (nM), Lectin Pathway, MAC deposition (WEISLAB, human serum) (human complement C3 [12]): 71 nM

B8: Clone III (scFv)
scFv: MQLVLTQSPSASASLGASVKLTCTLSSAHKTYTIDWYQQQPEKCPRYLMQLKSEGSYTKGSGIPDRFSGSSSGAERYLTISSLQSEDEADYYCGTEGVGGYVFGGGTKLTVLGGGGGSGGGGSGGGGSGGGGSQVQLVESGGGSVQPGRSLRLSCAASGFTFSNYAMNWVRQAPGKGLEWVAIINVGGGTNYADSVKGRFTISRDNSKNTLYLQMNSLRAEDTASYYCARAVGYHHARLDPWGCGTSVTVSS
notes: as for B7
Kd (human C3b [7]): 0.127 nM | koff (human C3b [7]): 3.1e-05 s⁻¹ | kon (human C3b [7]): 250000 M⁻¹ s⁻¹ | Kd [8]: 0.128 nM | koff [8]: 3.5e-05 s⁻¹ | kon [8]: 270000 M⁻¹ s⁻¹ | Kd (human complement C3 [9]): 0.151 nM | koff (human complement C3 [9]): 3.6e-05 s⁻¹ | kon (human complement C3 [9]): 240000 M⁻¹ s⁻¹ | Kd (cynomolgus C3): 0.208 nM | koff (cynomolgus C3): 4.3e-05 s⁻¹ | kon (cynomolgus C3): 200000 M⁻¹ s⁻¹ | Kd (human C3 P314L): 0.127 nM | koff (human C3 P314L): 3.2e-05 s⁻¹ | kon (human C3 P314L): 250000 M⁻¹ s⁻¹ | Kd (human C3 R102G): 0.115 nM | koff (human C3 R102G): 3.2e-05 s⁻¹ | kon (human C3 R102G): 280000 M⁻¹ s⁻¹ | Kd (human C3b [10]): 0.127 nM | Kd (human complement C3 [11]): 0.151 nM | IC50 (nM), Alternative Pathway, Hemolysis (rabbit erythrocytes, human serum) (human complement C3 [12]): 745 nM | IC50 (nM), Alternative Pathway, MAC deposition (WEISLAB, human serum) (human complement C3 [12]): 349 nM | IC50 (nM), Classical Pathway, Hemolysis (antibody-sensitized sheep erythrocytes, human serum) (human complement C3 [12]): 72 nM | IC50 (nM), Classical Pathway, MAC deposition (WEISLAB, human serum) (human complement C3 [12]): 73 nM | IC50 (nM), Lectin Pathway, MAC deposition (WEISLAB, human serum) (human complement C3 [12]): 64 nM

B9: Clone IV (scFv)
scFv: QSVKESGGRLVTPGTPLTLTCTVSGFSLYNYAMNWVRQAPGKGLEWIGIINTDGNTNYASWAKGRFTISTTSSTTVDLKITSPTTEDTATYFCPRAVGYHHHALDPWGPGTLVTVSSGGGGSGGGGSGGGGSGGGGASELVLTQSPSVSAALGASAKLTCTLSSAHKTYTIDWYQQQQGEAPRYLMQLKSDGSYTKGTGVPDRFSGSSSGADRYLIIPSVQADDEADYYCGTDYGGGYVFGGGTQLTVTG
IC50, complement inhibition in the alternative pathway (human complement C3 [1]): 280 nM | IC50, complement inhibition in the classical pathway (human complement C3 [1]): 80 nM

B10: Comparative Compound A3 (antibody, human IgG1, kappa, V domains shown)
VH: QVQLVQSGAEVKKPGASVKVSCKASGYTFTDFYMDWVRQAPGQRLEWMGYIYPHNGGTTYNQQFTGRVTITVDKSASTAYMELSSLRSEDTAVYYCARRGGFDFDYWGQGTLVTVSS
VL: DIQMTQSPSSLSASVGDRVTITCKASENVDTYVSWYQQKPGKAPKLLIYGASNRYTGVPSRFSGSGSGTDFTFTISSLQPEDIATYHCGQSHSYPLTFGQGTKLEIKR
IC50 (nM), Alternative Pathway, Hemolysis (rabbit erythrocytes, human serum) (human complement C3 [12]): 207 nM | IC50 (nM), Alternative Pathway, MAC deposition (WEISLAB, human serum) (human complement C3 [12]): 548 nM | IC50 (nM), Classical Pathway, Hemolysis (antibody-sensitized sheep erythrocytes, human serum) (human complement C3 [12]): 56 nM | IC50 (nM), Classical Pathway, MAC deposition (WEISLAB, human serum) (human complement C3 [12]): 56 nM | IC50 (nM), Lectin Pathway, MAC deposition (WEISLAB, human serum) (human complement C3 [12]): 58 nM
